Laboratory results reported in the supplement of paper PMC9170038.

Tested on: MS2 coat protein
Test: apparent KD of MS2 coat protein; designed switch direction (-1 OFF switch, 1 ON switch): -1; higher = weaker reporter binding
Outline: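 Designed RNA switches were transcribed on Illumina chips by stalled E. coli RNA polymerase and titrated with SNAP-549-labelled MS2 coat protein from 0.7 or 1.5 nM, doubling to 3 µM. Step length ran from 0.8–1.5 h at the lowest concentration to 10–20 min at the highest. The apparent KD is the median over clusters for each design, from curve-fitted normalised cluster fluorescence.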

[1] = Eterna round: R95, input ligand: microRNA oligo, concentration not stated
[2] = input ligand: microRNA oligo, concentration not stated
[3] = Eterna round: R95, input ligand: FMN 200 uM
[4] = Eterna round: R95, input ligand: none

Sequence | apparent KD of MS2 coat protein (input ligand: FMN 200 uM) | apparent KD of MS2 coat protein (input ligand: none) | other results
GGUGCGUUUGUGAGGAUAUGCUGGUCCUUGGUUCUGCAGAAGGCACAUGAGGAUCACCCAUGUGGUGUCGUACC [salish99_Bmod_Ex4_042] (puzzle: Brourd's mod of Exclusion 4) | – | – | apparent KD of MS2 coat protein [1]: 64.5 nM
UUUUUAUAUGAAGGAUAUACUUAACAUGAGGAUCACCCAUGUGGUGUUGUGAGUGAGUGAGUUUAGUAGAAGGUCAAUUCUUUU [JMF's solution 11] (Eterna round: R96, puzzle: Exclusion NG 2) | 957 nM | 510 nM | apparent KD of MS2 coat protein [2]: 395 nM
AGAAACAGAGGAUAUCGCGGACAGCACAUGAGGAUCACCCAUGUGAUGCUCCGCGGGCCGCGAGAAGGCUGAAAUG [Rateatge] (puzzle: Exclusion 5) | – | – | apparent KD of MS2 coat protein [3]: 29.3 nM; apparent KD of MS2 coat protein [1]: 12.2 nM; apparent KD of MS2 coat protein [4]: 14.1 nM
GCCGUCGUUGUGAGGAUAUGCCUAUGGAUACGUAGGCAGAAGGCACAUGAGGAUCACCCAUGUCCAAAGACGGC [JL-BMX4-4.28 Eli mod] (Eterna round: R97, puzzle: Brourd's mod of Exclusion 4) | 1000 nM | 101 nM | –
CACCUGAAGAGAGGAUAUCAUACAUGAGGAUCACCCAUGUAAUAAAUGAGAAUUUCGAAUGUAAUUGAGAAGGCUCGAUAAGGC [Ostricism 92 - Jieux - Exclusion NG 2] (Eterna round: R96, puzzle: Exclusion NG 2) | 109 nM | 59 nM | apparent KD of MS2 coat protein [2]: 54.9 nM
AAUAAUUGUGACAUGGGCGACAUGAGGAUCACCCAUGUUACAAGCUUGUUGCUCGUCUUAUAAUUAACCCAUGUCAC [LRO Sensor-off var1-22 mod of Stov1-13-A1 by Brourd] (Eterna round: R97, puzzle: Sensor, turn-off variant 1) | 16.3 nM | 15.2 nM | –
UUUCUUCAUAUCACAUGAGGAUCACCCAUGUUAUUCAUCGCGUAGGAUAUCGAGAUUUUUUUUUACGAGAAGGACGUAUUGAUA [JR_ExcNG3_Sub073] (Eterna round: R96, puzzle: Exclusion NG 3) | 49 nM | 52.2 nM | apparent KD of MS2 coat protein [2]: 51.6 nM
GGACCACAUGAGGAUCACCCAUGUCAGGAUAUGACGGCGUCGGCGAAAGCGGAGGCGGUCAGAAGGGACGGUAA [AK-MS2ROC-r4-exclusion1-10] (Eterna round: R97, puzzle: Exclusion 1) | 72.3 nM | 32.4 nM | –
AACCAGCGAGGAUAUUGUUGGUAAAACAUGAGGAUCACCCAUGUCACGUGAUCUUCCCAACAAGAAGGUGCACUAA [Isrierin] (Eterna round: R97, puzzle: Exclusion 5) | 183 nM | 46.7 nM | –
AGAUCACAUGAGGAUCACCCAUGUGAGGAUAUGCUUAAACCGUUGAACCCGGUUUGAGGCAGAAGGUGCGAGGG [Eternabot (L2) Solution 37] (Eterna round: R97, puzzle: Exclusion 1) | 29.9 nM | 21.3 nM | –
AUUUAAUUUAAUAAGAUCACAUGAGGAUCACCCAUGUAUAUAUAGGAUAUCAGCUCGUGUAGAGCUGAGAAGGAUAUAUACAUG [ExNG3/8-A3] (Eterna round: R96, puzzle: Exclusion NG 3) | – | – | apparent KD of MS2 coat protein [2]: 15.4 nM
ACAUGAGGAUCACCCAUGUCUGGCGGGUCCUCUCCGGCUGUUGAGGAUAUAGUCCGGUAUCCGCGCUAGAAGGUGAGGGCCGGC [Aenatbe mod 19] (Eterna round: R96, puzzle: Exclusion NG 3) | 21.8 nM | 23.5 nM | apparent KD of MS2 coat protein [2]: 13.8 nM
CUGGUCCGAGGAUAUAUUAAGUGAUACAUGAGGAUCACCCAUGUAAUUUAAUGGAUGUAAAUAGAAGGCGGACUAG [JL-ex5-3.11] (puzzle: Exclusion 5) | – | – | apparent KD of MS2 coat protein [3]: 43.2 nM; apparent KD of MS2 coat protein [1]: 39.7 nM; apparent KD of MS2 coat protein [4]: 38.7 nM
GUAAAGAGAGGAUAUACAUGAGGAUCACCCAUGUACGACCAGCAGAAAUGGUCCUCGAGUAGAAGGCUCGGGUA [Araris] (Eterna round: R97, puzzle: Exclusion 3) | 239 nM | 51.7 nM | –
AGUUGGCGAGGAUAUACAUGAGGAUCACCCAUGUGAAUAAUAAUAGUGAGGAAGAAAAGUAGAAGGCGCUGACA [Mat - Exclusion 3 - Mod of Salish D35] (puzzle: Exclusion 3) | – | – | apparent KD of MS2 coat protein [1]: 46.1 nM
GGUGUACAUGAGGAUCACCCAUGUUAGGAUAUAUCCAAACGCCUAGAGGAGAGGCACGAUAGAAGGAACGUGUA [Eternabot (Original) Solution 33] (Eterna round: R97, puzzle: Exclusion 1) | 37.2 nM | 41 nM | –
AAGUACCGUCACGAUAGUGAUGGUACAACAAGCAGUGAAACAUGAGGAUCACCCAUGUCCUCAGUUGCUCGUCUUAU [Sensor 3 - 79] (puzzle: Sensor v3, turn-off variant 2) | – | – | apparent KD of MS2 coat protein [3]: 196 nM; apparent KD of MS2 coat protein [1]: 492 nM; apparent KD of MS2 coat protein [4]: 195 nM
UAUUAGCAAGCGAGGUCCCACAUGAGGAUCACCCAUGUGCUCGUCUUAUAAGGUACUGUGACGAUAGUCACGGUACC [Mat - Sensor, turn-off var - Eli Mod - D33] (Eterna round: R97, puzzle: Sensor, turn-off variant 1) | 14.6 nM | 14.6 nM | –

Sequence | apparent KD of MS2 coat protein (input ligand: FMN 200 uM) | apparent KD of MS2 coat protein (input ligand: none) | other results
CUUUAGUGAGGAUAUCAGUAGUAAUACAAUAGUAUUACUGCUGAGAAGGCACAUGAGGAUCACCCAUGUUCCUC [Mat - Exclusion 4 - Mod of Omei - D83] (puzzle: Exclusion 4) | – | – | apparent KD of MS2 coat protein [1]: 33.1 nM
UAAAAGCGAGGAUAUACAUGAGGAUCACCCAUGUGGGCAAAGUUCGCUAAGGUACCUAGUAGAAGGCGCGAAAU [Digeanin] (Eterna round: R97, puzzle: Exclusion 3) | 450 nM | 63.3 nM | –
GUGUUACAUGAGGAUCACCCAUGUGAGGAUAUCAUGCUUCGUAGUAAACUACGAAGUGUGAGAAGGCAUAUGAC [Omei Ex1 E4] (Eterna round: R97, puzzle: Exclusion 1) | 50.7 nM | 56.5 nM | –
AAAUACAGAGGAUAUAUGGAAAACGACUUGAGGAUCACCCAAGUACGGGUGGCCUAACCCGUAGAAGGCUGCCAAA [Tibece] (Eterna round: R97, puzzle: Exclusion 5) | 72.5 nM | 30.6 nM | –
UUAUACGCUGAGGAUAUCAUCACUGAGAGGUGAUGAGAAGGCGGUACAUGAGGAUCACCCAUGUCUAUGGGCAG [Ex-6 Malc#21] (puzzle: Exclusion 6) | – | – | apparent KD of MS2 coat protein [1]: 187 nM
UUAGAAUUGUUAGGAUAUUAAUUAUUGUAUAGUAUGAUCUACAUGAGGAUCACCCAUGUUAAAUAUAAGAAGGAACGUUAGAUU [JR_ExcNG2_Sub094] (Eterna round: R96, puzzle: Exclusion NG 2) | – | – | apparent KD of MS2 coat protein [2]: 42.3 nM
UUUUUACAUGAGGAUCACCCAUGUCAGGAUAUCGUUAUAUUUUAUUAUUUUAUUUUUUCGAGAAGGGACUAUUA [My solution] (puzzle: Exclusion 1) | – | – | apparent KD of MS2 coat protein [1]: 74.6 nM
UGAUGCUCAGGAUAUACAUCAGUGUUCAGGCCAAAAGGCGGACAUGAGGAUCACCCAUGUAGAAGGGAGCGUUC [Eternabot (L1) Solution 13] (Eterna round: R97, puzzle: Exclusion 2) | 900 nM | 380 nM | –
AUUUAUGGAGGAUAUACUUGAGGAUCACCCAAGUGGAGUCCCUUUUGGGCGGUAAAUAGUAGAAGGCCGUCUUA [jl-ex3-4.48 ViennaUCT mod] (Eterna round: R97, puzzle: Exclusion 3) | 20.9 nM | 16.3 nM | –
UUGUUCCGUGUAGGAUAUUGGCCUUCCUCGGGCCGAGAAGGACAUGAGGAUCACCCAUGUAUGCUAUUAUCGCGCGUGGCGCAC [Design 95] (Eterna round: R96, puzzle: Exclusion NG 1) | 279 nM | 39.9 nM | apparent KD of MS2 coat protein [2]: 22.4 nM
GAUACACAUGAGGAUCACCCAUGUGAGGAUAUGCGUACGUUGUCCGUAGGCGACGUGCGCAGAAGGCGCGUGAG [Mat - Mod of JL D88] (puzzle: Exclusion 1) | – | – | apparent KD of MS2 coat protein [1]: 46.4 nM
AAGAUGCGGAUAGGAUAUGGAAAAAAAAAAGGAUUAGAAGGGUUGGUUAAAAUACAUGAGGAUCACCCAUGUGAAUCAUGAGAA [AK ExNG1-2.2] (Eterna round: R96, puzzle: Exclusion NG 1) | 392 nM | 186 nM | apparent KD of MS2 coat protein [2]: 188 nM
AAGAAGAUCAAAGGAUAUGGAGCUGAAACGGCGCUAGAAGGUUGUCUAGUGUAACAUGAGGAUCACCCAUGUAGGUACCUCUAA [AK ExNG1-V2-1.1] (Eterna round: R96, puzzle: Exclusion NG 1) | 730 nM | 847 nM | apparent KD of MS2 coat protein [2]: 376 nM
GUCAGACGAGGAUAUGAUUAAUAAUACAUGAGGAUCACCCAUGUAAUACUGAUCUAUGGAUCAGAAGGCGUCUGAC [E5/6-A4] (Eterna round: R97, puzzle: Exclusion 5) | 15 nM | 16.1 nM | –
AUUUUGUCAGGAUAUGAUUAGUAGGAUGAGAGUGCUACUACUUAGAAGGGACAUGAGGAUCACCCAUGUAUUCC [Bring Us a Shrubbery-07] (puzzle: Exclusion 4) | – | – | apparent KD of MS2 coat protein [1]: 14.7 nM
CCGCCUGGAUAGGAUAUAGAGCUUUGAGAGGUCCUAGAAGGGUCCACAUGAGGAUCACCCAUGUCACAAUAUCG [Eternabot (L1) Solution 71] (Eterna round: R97, puzzle: Exclusion 6) | 28 nM | 29.6 nM | –
UCCUUACUGGUCAGGAUAUACAUUCGCUACUGGGUGUAGAAGGGACAUGAGGAUCACCCAUGUACGUUACAUCC [alecazam54e] (Eterna round: R97, puzzle: Brourd's mod of Exclusion 4) | 19.3 nM | 23.8 nM | –
